Results on 5 molecules are retold here after article PMC8327350, “Interaction between the transmembrane domains of neurotrophin receptors p75 and TrkA mediates their reciprocal activation” (The Journal of Biological Chemistry, 2021).

No end group written: not given here.

The chains are these.
B1: p75-TM-C257A (C257A point mutant form of p75TM) (domain or fragment, human)
chain: MTRGTTDNLIPVYASILAAVVVGLVAYIAFKRWNSSKQNKQ
modifications: also: 15N-labeled in one set, unlabeled in the other
notes: methionine printed before T245; Seen as monomer, noncovalent homodimer and heterodimer with TrkA-TM in the NMR samples; also called p75-C257A; p75-C257A-TM; source: cell-free expression (E. coli Rosetta(DE3)pLysS S30 extract), in DPC micelles
B2: human TrkA-TM (domain or fragment)
chain: MKKDETPFGVSVAVGLAVFACLFLSTLLLVLNKAGRRNK
modifications: also: 15N-labeled in one set, unlabeled in the other
notes: methionine printed before K410; human TrkA transmembrane domain, K410 to K447; the A at 442 is printed underlined and not explained; also called TrkA-TM-wt; TrkA-TMD; source: cell-free expression (E. coli Rosetta(DE3)pLysS S30 extract), in DPC micelles

Series [1] addresses full-length TrkA tagged with mTurquoise (UniProt P04629).
Series [2] deals with the molecule itself. Briefly: NMR cross-correlated relaxation (rotational correlation time, hydrodynamic radius); cross-correlated relaxation rates of p75-TM-C257A amide signals (I259, V263, G266, A269, Y270) of monomer, homodimer and heterodimer in DPC micelles, 45 °C.
Series [3] deals with the molecule itself. In words: NMR titration; unlabeled p75-TM-C257A added incrementally to 0.5 mM 15N-labeled TrkA-TM; DPC micelles, LPR 80, pH 5.9, 318 K, 20 mM sodium phosphate.
Series [4] has as its target B1. Briefly: NMR cross-correlated relaxation (rotational correlation time, hydrodynamic radius); cross-correlated relaxation rates of p75-TM-C257A amide signals (I259, V263, G266, A269, Y270) of monomer, homodimer and heterodimer in DPC micelles, 45 °C. As to conditions: both partners purified.

Sequence of full-length TrkA tagged with mTurquoise (P04629 33-796): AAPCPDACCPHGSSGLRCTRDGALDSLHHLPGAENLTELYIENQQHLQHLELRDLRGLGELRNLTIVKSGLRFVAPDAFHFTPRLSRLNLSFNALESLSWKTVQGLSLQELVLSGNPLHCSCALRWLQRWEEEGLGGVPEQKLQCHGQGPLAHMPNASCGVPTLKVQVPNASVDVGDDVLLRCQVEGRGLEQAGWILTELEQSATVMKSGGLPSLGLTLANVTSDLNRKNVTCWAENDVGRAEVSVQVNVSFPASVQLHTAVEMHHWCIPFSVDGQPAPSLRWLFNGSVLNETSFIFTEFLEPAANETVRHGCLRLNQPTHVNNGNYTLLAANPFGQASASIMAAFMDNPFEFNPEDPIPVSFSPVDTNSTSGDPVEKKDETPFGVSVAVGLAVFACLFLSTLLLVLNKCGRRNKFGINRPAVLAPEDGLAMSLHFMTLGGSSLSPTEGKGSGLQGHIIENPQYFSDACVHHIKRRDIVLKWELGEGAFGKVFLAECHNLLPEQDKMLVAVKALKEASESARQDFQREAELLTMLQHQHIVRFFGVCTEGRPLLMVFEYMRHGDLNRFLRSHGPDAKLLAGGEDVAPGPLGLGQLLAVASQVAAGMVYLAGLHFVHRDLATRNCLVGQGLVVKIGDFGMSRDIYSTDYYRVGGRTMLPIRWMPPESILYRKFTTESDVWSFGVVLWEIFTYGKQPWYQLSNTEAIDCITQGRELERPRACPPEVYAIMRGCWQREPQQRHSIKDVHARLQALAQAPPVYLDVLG

Molecule “p75–AGA mutation (triple mutation A262,G266,A269 to Ile) (from UniProt P08138 29-427) (receptor)” had an EC50 of NGF for TrkA phosphorylation (activation loop, Western blot) in HeLa cells coexpressing TrkA and p75–AGA, NGF 0 to 100 ng/ml in series [1] of 1.7 nM.
Consider “full-length p75 tagged with enhanced YFP (from UniProt P08138 29-427) (receptor)”, for which, in series [1], the EC50 of NGF for TrkA phosphorylation (activation loop, Western blot) in HeLa cells coexpressing TrkA and p75, NGF 0 to 100 ng/ml was determined as 0.299 nM.
In series [1], “p75-TNFR (p75 with its TMD swapped with the one from the TNFR) (from UniProt P08138 29-427) (receptor)” displayed an EC50 of NGF for TrkA phosphorylation (activation loop, Western blot) in HeLa cells coexpressing TrkA and p75-TNFR, NGF 0 to 100 ng/ml of 2.7 nM.
As to B1, the “stoichiometry N” value in series [2] was 2 chains in the oligomer (homodimer).
For the molecule B2, the binding result in series [3] is “binds”. Besides, the “stoichiometry N” value in series [4] is 1 TrkA-TM per p75-TM-C257A (heterodimer).

Usually stoichiometry N stands for the number of molecules, sites or subunits per partner or assembly.
